Molecular target: GST-tagged Cdc42, nucleotide-free (human) (UniProt P60953)
Assay: pull-down

Sequence of UniProt P60953 (P60953 whole entry): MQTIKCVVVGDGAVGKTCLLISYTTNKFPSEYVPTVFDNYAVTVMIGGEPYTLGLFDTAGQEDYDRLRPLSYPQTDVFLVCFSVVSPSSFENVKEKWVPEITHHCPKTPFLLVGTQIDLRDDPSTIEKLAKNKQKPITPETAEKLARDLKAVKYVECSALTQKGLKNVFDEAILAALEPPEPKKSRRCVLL

Work on “MBP-Map residues 37–203 (from UniProt P0AE18 37-203) (domain or fragment)” yielded a stoichiometry N of 1.
